B1: KLHL13 (parent)
chain: TGEFLKLPFERLAFVLSSNSLKHC
B2: ALDH8A1 (parent)
chain: FTGSQPTAERITQLSAPHCKKLSL

Variants of: B1
Assay: protein stability index of a GFP-peptide fusion (GPS, HEK-293T) (PSI 1-6); higher = more stable
Details: c terminus: a fixed tail appended
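Note: lentivirally expressed fusions sorted by FACS into six bins by GFP to DsRed ratio, PSI derived from sequencing read proportions per bin multiplied by bin number.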

Protein stability index of substitutions, site by site:
K6: T 2.73
L7: A 1.73; D 1.25; E 1.08; I 3.09; K 1.86; P 2.87; Q 1.19; T 3.88; W 4.29
P8: C 1.84; D 1.58; M 3.97; N 2.66; Q 1.41; T 3.92; Y 4.25
F9: A 2.33; C 1.82; D 2.04; E 2.22; G 2.18; H 1.71; I 3.04; K 2.56; L 3.5; M 3.01; N 1.8; P 2.04; Q 2.6; R 1.65; S 2.07; T 1.65; V 2.23; W 3.18; Y 2.7
E10: A 3.65; C 2.48; D 3.16; G 2.42; H 2.69; K 2.76; L 2.88; M 3.02; N 1.99; P 2.75; Q 2.03; R 4.24; S 2.96; T 2.76; W 3.59; Y 3.3
R11: A 3.93; C 2.12; D 2.08; E 2.48; F 3.1; G 2.54; H 1.62; K 3.47; M 3.39; N 3.3; P 3.17; Q 3.1; S 3.23; T 4.01; V 3.99; W 2.11; Y 4.43
L12: A 1.99; C 3.25; D 2.38; E 1.96; F 3.73; G 2.83; H 2.27; K 2.12; M 3.48; N 2.15; P 1.77; Q 2.11; R 2.35; S 1.92; T 1.53; V 1.44; Y 1.76
A13: C 2.41; D 2.08; E 1.71; F 1.67; G 1.6; H 1.72; I 3.35; K 1.98; M 3.12; N 1.93; P 3.04; Q 2.26; R 1.85; S 1.99; T 2.76; Y 3.93
F14: A 1.42; C 1.95; D 1.98; E 2.33; G 2.54; H 1.8; K 1.79; L 2.31; M 2.74; N 2.33; P 2.69; Q 1.66; R 1.4; S 2.21; T 2.21; V 1.13; W 3.04; Y 2.36
V15: A 1.84; C 2.21; D 1.82; E 1.78; F 2.39; G 3.31; H 2.27; I 2; K 1.81; L 3.05; M 1.96; N 1.95; P 2.53; Q 2.31; R 1.53; S 2.32; T 1.59; W 3.3; Y 1.06
L16: A 1.74; C 1.39; D 2.37; E 2.42; G 2.23; H 1.89; I 2.89; K 2.65; M 2.25; N 2.93; P 2.33; Q 2.24; R 2.21; S 2.68; T 1.75; V 3.18; W 2.23; Y 1.93
S17: A 3.79; C 5.02; D 1.06; E 1.86; I 1.71; K 1.05; L 2.06; M 2.2; N 2.33; P 1.7; Q 1.72; R 2.82; W 3.66; Y 2.46
S18: A 1.35; C 3.11; D 2.42; E 2.37; F 2.48; H 2.48; K 3.09; L 3.02; N 1.98; P 2.64; Q 1.61; V 4.13; W 2.81; Y 2.79
N19: C 4.21; D 1.56; E 2.44; G 3.21; K 2.22; L 3.66; M 3.78; P 2.62; Q 1.81; R 2.56; T 2.98; V 2.24; W 3.01; Y 3.05
S20: C 3.52; D 2.29; E 2.34; F 2.55; G 2.59; H 1.49; I 2.7; K 2.43; L 3.05; M 3.42; N 3.25; P 2.4; R 1.87; T 2.98
L21: A 2.92; C 3.31; D 2.79; E 2.45; F 1.42; G 1.75; H 2.14; I 3.4; K 1.26; M 3.88; N 1.88; P 2.39; Q 1.91; R 1.63; S 1.44; T 2.49; V 1.72; Y 2.33
K22: A 2.4; C 4.71; D 2.77; E 2.2; G 2.18; I 2.96; L 3.44; M 3.25; N 4.57; P 3.24; Q 4.87; R 2.48; S 4.04; T 2.34; V 3.78; W 3.33; Y 1.96
H23: C 2.87; D 2.27; K 2.49; M 2.02; N 2.42; P 1.85; Q 4.44; R 1.99; S 4.04; T 2.17; V 2.8; W 1.88; Y 3.32
C24: A 1.75; D 2.13; E 1.81; F 3.88; G 1.9; H 2.56; I 4.16; K 1.61; L 2.62; M 2.65; N 2.94; Q 1.6; R 2.4; S 1.76; T 2.1; V 2.76; W 1.03; Y 3.19

Variants of: B2
Assay: as above
Details: c terminus: a fixed tail appended

Protein stability index: each site, then its substitutions
F1: A 4.03; C 3.48; D 4.38; E 4.26; G 4.34; H 4.18; I 3.86; K 3.96; L 3.65; M 3.62; N 4.34; P 4.14; Q 4.31; R 3.78; S 3.92; T 4.27; V 3.82; W 3.35; Y 2.47
T2: A 2.38; C 1.86; D 3.95; E 3.86; F 2.89; G 3.19; H 2.2; I 2.07; K 3.42; L 2.74; M 3.07; N 3.41; P 3.41; Q 3.24; R 3.37; S 3.11; V 1.02; W 2.53; Y 3.35
G3: A 2.88; C 2.68; D 3.15; E 3.56; F 1.97; H 2.4; I 2.77; K 3.45; L 2.6; M 2.56; N 2.62; P 2.07; Q 2.38; R 2.71; S 2.65; T 2.69; V 2.44
